Positions count from the first letter of the chain named. Numbers in names are those of the source. Where two headings read alike, the source gives them in different places. Each block holds one molecule with its values, some of them ahead of it.
What was measured:
[1] = biological target: Full length activated FXIIa (α‐FXIIa) (UniProt P00748)
Target sequence in this assay (P00748 20-615): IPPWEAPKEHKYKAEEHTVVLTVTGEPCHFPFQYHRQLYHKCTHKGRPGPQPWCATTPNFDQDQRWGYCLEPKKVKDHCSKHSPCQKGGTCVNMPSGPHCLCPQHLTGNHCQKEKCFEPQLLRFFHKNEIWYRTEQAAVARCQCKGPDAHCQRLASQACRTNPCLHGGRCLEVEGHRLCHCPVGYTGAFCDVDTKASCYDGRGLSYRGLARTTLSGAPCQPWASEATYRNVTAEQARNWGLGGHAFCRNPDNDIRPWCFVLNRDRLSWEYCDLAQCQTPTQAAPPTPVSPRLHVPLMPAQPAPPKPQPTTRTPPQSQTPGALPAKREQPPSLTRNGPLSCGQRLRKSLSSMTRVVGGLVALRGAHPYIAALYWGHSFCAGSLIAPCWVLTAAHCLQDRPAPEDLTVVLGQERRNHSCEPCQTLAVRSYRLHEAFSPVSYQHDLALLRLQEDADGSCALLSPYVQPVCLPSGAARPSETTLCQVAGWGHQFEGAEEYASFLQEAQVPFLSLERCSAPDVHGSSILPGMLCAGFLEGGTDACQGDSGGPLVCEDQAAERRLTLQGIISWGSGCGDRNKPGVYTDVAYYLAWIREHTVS

α‐FXIIa [2] = biological target: T1, α‐FXIIa (Homo sapiens, UniProt P00748); experiment: α‐FXIIa enzymatic assay (S‐2302 chromogenic substrate cleavage, pNA release); format: biochemical; details: CTI variant proteins 10^−8 M to 10^−5 M, 200 μM S‐2302, 10 nM α‐FXIIa, 33 °C, initial rate of first 30 min, A405; SE of the fit, n = 3–5 independent experiments; SEM
T1 construct: purchased Enzyme Research Laboratories (Swansea, UK)
T1 sequence (P00748 373-615 limits assumed): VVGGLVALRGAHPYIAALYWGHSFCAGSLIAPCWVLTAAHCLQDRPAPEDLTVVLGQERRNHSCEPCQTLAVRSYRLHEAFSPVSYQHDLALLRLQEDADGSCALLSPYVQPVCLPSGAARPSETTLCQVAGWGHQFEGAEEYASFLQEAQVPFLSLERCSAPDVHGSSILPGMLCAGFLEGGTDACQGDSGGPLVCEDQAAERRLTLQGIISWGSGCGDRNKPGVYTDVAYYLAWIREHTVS
T1 sequence (P00748 20-372 partner limits assumed): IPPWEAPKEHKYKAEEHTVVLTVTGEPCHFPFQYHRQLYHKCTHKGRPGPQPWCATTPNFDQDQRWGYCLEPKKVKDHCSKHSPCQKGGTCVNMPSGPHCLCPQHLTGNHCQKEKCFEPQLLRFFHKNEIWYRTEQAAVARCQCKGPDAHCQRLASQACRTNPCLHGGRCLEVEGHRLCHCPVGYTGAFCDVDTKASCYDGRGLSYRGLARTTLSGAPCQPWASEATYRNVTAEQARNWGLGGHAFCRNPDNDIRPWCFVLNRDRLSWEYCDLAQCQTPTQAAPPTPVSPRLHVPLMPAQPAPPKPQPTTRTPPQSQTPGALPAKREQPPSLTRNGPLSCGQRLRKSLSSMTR
Procedure: (§1) The enzymatic activity of α‐FXIIa was measured by monitoring the amount of pNA chromophore released from substrate H‐D‐Pro‐Phe‐Arg‐pNA (S‐2302). Assays were performed in a 100‐μL volume at 33 °C in 96‐well plates in a Perkin Elmer (Seer Green, UK) Envision plate reader, and pNA release was followed over a period of 6 h by reading the absorbance at 405 nm. Absorbance values were converted to pNA concentrations by comparison with a standard curve obtained under exactly the same instrument conditions. All absorbance values were within the linear measurement range of the instrument. Initial rates were calculated on the basis of the first 30 min of incubation. To assess the K M, concentrations of substrate peptide between 0.1 mM and 0.6 mM were incubated with 10 nM α‐FXIIa, enzymatic activity was measured as described above, and data were analyzed by non‐linear regression with the Michaelis–Menten algorithm (GRAPHPAD PRISM, version 6.04). To assess the inhibitory mechanism of CTI, 30 nM CTI was incubated with these same concentrations of substrate peptide, the reaction was initiated by the addition of 10 nM α‐FXIIa, enzymatic activity was measured as described above, and data were analyzed by non‐linear regression with the Michaelis–Menten algorithm (GRAPHPAD PRISM, version 6.04) and by linear regression after Lineweaver–Burk transformation. To assay inhibitors, concentrations of CTI variant proteins between 10^−8 M and 10^−5 M or concentrations of peptides between 10^−6 M and 10^−3 M were incubated with 200 μM substrate peptide, the reaction was initiated by addition of 10 nM α‐FXIIa, enzymatic activity was measured as described above, and IC50 values were determined by non‐linear regression analysis (GRAPHPAD PRISM, version 6.04) using the log[inhibitor] versus response – variable slope algorithm with a bottom constraint.

[3] = biological target: Full length activated FXIIa (α‐FXIIa) (UniProt P00748); remark: listed apart in the source
[4] = biological target: Full length activated FXIIa (α‐FXIIa) (UniProt P00748); remark: listed apart in the source
α‐FXIIa [5] = biological target: T1, α‐FXIIa; experiment: Kinetic analysis of the CTI inhibitory mechanism (Michaelis–Menten / Lineweaver–Burk, S‐2302); format: biochemical; details: 0.1 to 0.6 mM substrate peptide, 10 nM α‐FXIIa
Procedure: as §1
Figure S3: analysis of CTI inhibitory mechanism
0.1 to 0.6 mM of substrate peptide was incubated without (open symbols) or with 30 nM CTI (closed symbols), after which 10 nM α -FXIIa (equalling to 1 pmol of enzyme) was added and enzyme activity was measured as described in the method section. Data were analysed by non-linear regression (top left panel) and linear regression after Lineweaver Burk […]

FXIa = details: previous reports; cited from earlier work
thrombin = details: previous reports; cited from earlier work
FIXa = details: cited from earlier work
Description: (§2) The canonical docking pose that we observed for FXIIa–CTI is similar to the trypsin–CTI and HGFA–CTI complexes predicted by CLUSPRO, albeit that there are fewer interactions overall for trypsin and HGFA, owing to Asp60A (H1 pocket) being absent in these proteases.

kallikrein = details: cited from earlier work
Description: as §2

FVIIa = details: cited from earlier work

- IC50 of inhibition of α‐FXIIa enzymatic activity (S‐2302 cleavage) [1]: 460 µM
- pIC50 of inhibition of α‐FXIIa enzymatic activity (S‐2302 cleavage) [1]: 3.34
B1: CTI(21–43) synthetic peptide (peptide)
peptide: RWYVTSRTAGIGPRLPWPELKRR

- pIC50 ± SE (α‐FXIIa [2]): 6.78 ± 0.04
B2: R27A: rec‐CTI variant, alanine substitution of Arg27 (protein)
chain: SAGTSCVPGWAIPHNPLPSCRWYVTSATCGIGPRLPWPELKRRCCRELADIPAYCRCTALSILMDGAIPPGPDAQLEGRLEDLPGCPREVQRGFAATLVTEAECNLATISGVAECPWILGGGTMPSK
modifications: assayed as His6-GST fusion (tag omitted); disulfides

- pIC50 ± SE (α‐FXIIa [2]): 6.32 ± 0.06
B3: G30W: rec‐CTI variant, replacement of Gly30 with a tryptophan (protein)
chain: B2 chain with A27R, G30W
modifications: assayed as His6-GST fusion (tag omitted); disulfides

- pIC50 ± SE (α‐FXIIa [2]): 4.89 ± 0.06
B4: G32W: rec‐CTI variant, replacement of Gly32 with tryptophan (protein)
chain: B2 chain with A27R, G32W
modifications: assayed as His6-GST fusion (tag omitted); disulfides

- IC50 of inhibition of α‐FXIIa enzymatic activity (S‐2302 cleavage) [3]: 0.11 µM
- pIC50 of inhibition of α‐FXIIa enzymatic activity (S‐2302 cleavage) [3]: 6.97
- pIC50 of inhibition of α‐FXIIa enzymatic activity (S‐2302 cleavage) [4]: 6.95
- pIC50 ± SE (α‐FXIIa [2]): 6.97 ± 0.04
- Inhibitory mechanism (α‐FXIIa [5]; 30 nM CTI): competitive inhibitory mechanism
- Ki (α‐FXIIa [5]; 30 nM CTI, Fig. S3): 0.029 ± 0.004 µM
B5: commercial corn trypsin inhibitor (CTI) (natural protein)
chain: SAGTSCVPGWAIPHNPLPSCRWYVTSRTCGIGPRLPWPELKRRCCRELADIPAYCRCTALSILMDGAIPPGPDAQLEGRLEDLPGCPREVQRGFAATLVTEAECNLATIS
- kcat (α‐FXIIa [5]; in the presence of 30 nM CTI, Fig. S3): 15 ± 2
- Km (α‐FXIIa [5]; in the presence of 30 nM CTI, Fig. S3, read-out: Km app): 301 ± 72 µM
- Inhibition of FXIa, in words (FXIa): weakly inhibits
- Inhibition of thrombin, in words (thrombin): does not inhibit
- Inhibition of FIXa, in words (FIXa): does not inhibit
- Inhibition of kallikrein, in words (kallikrein): does not inhibit
- Inhibition of FVIIa, in words (FVIIa): does not inhibit

- IC50 of inhibition of α‐FXIIa enzymatic activity (S‐2302 cleavage) [1]: 290 µM
- pIC50 of inhibition of α‐FXIIa enzymatic activity (S‐2302 cleavage) [1]: 3.54
B6: CTI(20–44) synthetic peptide (peptide)
peptide: CRWYVTSRTAGIGPRLPWPELKRRC

- IC50 of inhibition of α‐FXIIa enzymatic activity (S‐2302 cleavage) [1]: 200 µM
- pIC50 of inhibition of α‐FXIIa enzymatic activity (S‐2302 cleavage) [1]: 3.7
B7: CTI(21–42) synthetic peptide (peptide)
peptide: RWYVTSRTAGIGPRLPWPELKR

- IC50 of inhibition of α‐FXIIa enzymatic activity (S‐2302 cleavage) [1]: 1100 µM
- pIC50 of inhibition of α‐FXIIa enzymatic activity (S‐2302 cleavage) [1]: 2.94
B8: CTI(23–43) synthetic peptide (peptide)
peptide: YVTSRTAGIGPRLPWPELKRR

— paper PMC5638086, “Assessment of the protein interaction between coagulation factor XII and corn trypsin inhibitor by molecular docking and biochemical validation” (Journal of Thrombosis and Haemostasis, 2017)
